We go through 1 molecule from publication PMC11286772, “Structural basis of antagonist selectivity in endothelin receptors” (Cell Discovery, 2024).

The target of test [1] is T1, ETA G233^ECL2A (Homo sapiens, UniProt P25101, G233A).
T1 construct: expressed in transfected cells; host or cells: CHO-K1
T1 sequence (P25101 21-427 G233A): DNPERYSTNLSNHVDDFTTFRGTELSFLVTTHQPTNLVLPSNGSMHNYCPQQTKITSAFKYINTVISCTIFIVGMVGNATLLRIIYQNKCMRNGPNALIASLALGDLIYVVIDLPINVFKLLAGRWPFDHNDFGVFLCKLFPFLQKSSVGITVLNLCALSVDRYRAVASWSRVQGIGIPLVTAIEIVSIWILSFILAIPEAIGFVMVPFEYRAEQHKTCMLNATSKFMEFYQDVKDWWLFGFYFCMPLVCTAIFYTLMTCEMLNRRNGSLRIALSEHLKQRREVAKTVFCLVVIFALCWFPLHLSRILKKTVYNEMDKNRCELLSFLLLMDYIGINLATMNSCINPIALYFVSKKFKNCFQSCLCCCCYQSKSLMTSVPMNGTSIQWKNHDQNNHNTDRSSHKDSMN
As to the kind of experiment: Size exclusion chromatography analysis of Fab301 binding. The following applies: ETA G233^ECL2A mutant vs WT. The source says:
(§1) To pinpoint the exact ECL2 residues involved in binding, we performed an extensive alanine scanning mutagenesis. Our size exclusion chromatography analysis identified that the region spanning residues 230^ECL2–235^ECL2 in ETA, and in particularly, residues R232^ECL2 and G233^ECL2, are crucial for Fab301 binding. […] Moreover, the hydrophobic interactions at this interface are crucial for antibody binding, as confirmed by our calcium mobilization assay on Fab301 (Supplementary Fig. S9b). Within this model, E230^ECL2 establishes hydrogen bonds with the CDRL1 and CDRL2 regions of Fab301, whereas Y231^ECL2 and E234^ECL2, together with R232^ECL2, participate in a complex hydrogen bond network within the CDRH3 region of Fab301 (Fig. 6c).
In general terms: In gel filtration, larger molecules generally elute earlier.

The target of test [2] is T2, ETA R232^ECL2A (Homo sapiens, UniProt P25101, R232A).
T2 construct: expressed in transfected cells; host or cells: CHO-K1
T2 sequence (P25101 21-427 R232A): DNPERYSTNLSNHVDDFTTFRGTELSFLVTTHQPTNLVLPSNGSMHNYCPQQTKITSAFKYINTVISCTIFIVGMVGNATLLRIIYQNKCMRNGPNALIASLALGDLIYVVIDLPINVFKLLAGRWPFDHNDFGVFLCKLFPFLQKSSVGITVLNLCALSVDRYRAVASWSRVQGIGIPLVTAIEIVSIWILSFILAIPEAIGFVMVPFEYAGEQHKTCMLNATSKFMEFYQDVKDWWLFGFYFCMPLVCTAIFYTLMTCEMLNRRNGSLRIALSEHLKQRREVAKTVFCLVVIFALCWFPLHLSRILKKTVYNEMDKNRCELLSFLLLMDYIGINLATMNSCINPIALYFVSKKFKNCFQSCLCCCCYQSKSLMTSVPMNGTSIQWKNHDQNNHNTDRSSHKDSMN
Described as above. Particulars: ETA R232^ECL2A mutant vs WT.
Excerpt: as §1

Test [3] concerns the target T3, ETA WT (Homo sapiens, UniProt P25101).
T3 construct: expressed in transfected cells; host or cells: CHO-K1
T3 sequence (P25101 21-427): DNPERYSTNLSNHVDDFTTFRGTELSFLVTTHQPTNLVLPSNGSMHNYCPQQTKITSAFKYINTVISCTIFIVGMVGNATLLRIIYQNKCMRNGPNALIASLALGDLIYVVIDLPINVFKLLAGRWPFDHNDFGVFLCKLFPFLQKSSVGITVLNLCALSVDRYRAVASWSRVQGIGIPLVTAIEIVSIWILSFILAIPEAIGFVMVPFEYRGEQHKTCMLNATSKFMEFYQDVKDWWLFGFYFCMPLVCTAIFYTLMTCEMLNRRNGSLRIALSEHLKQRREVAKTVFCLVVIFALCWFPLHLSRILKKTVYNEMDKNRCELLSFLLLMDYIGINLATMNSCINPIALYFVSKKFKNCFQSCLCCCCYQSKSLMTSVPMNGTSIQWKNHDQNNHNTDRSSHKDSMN
As to the kind of experiment: Calcium mobilization assay, antagonist mode (ET-1 stimulated), CHO-K1 cells. In kind it is cell-based. How it is done: CHO-K1 cells were cultured in Ham’s F-12K (Kaighn’s) Medium (Gibco-Thermo Fisher Scientific) supplemented with 10% (v/v) fetal bovine serum (FBS; Gibco-Thermo Fisher Scientific), and 100 U/mL Penicillin-Streptomycin (Gibco-Thermo Fisher Scientific) in a humidified incubator at 37 °C with 5% CO2. Cells were seeded in 6-cm dishes overnight; when the density reached 60%–80%, the cells were transferred to F12K Medium supplemented with 10% FBS and transfected with 1.5 μg DNA encoding the ETA WT or mutants or 3 μg DNA encoding the ETB WT or mutants using TransIT2020 (Mirus Biosciences). The next day, transfected cells were harvested from the plate using Versene buffer (Gibco-Thermo Fisher Scientific) and seeded into black-sided, clear-bottomed 384-well plates (Agilent) at a density of 1,5000 cells per well. After 20 h, the 1% dFBS medium was removed, and cells were loaded with 20 μL/well of 1× Calcium 6 dye (Molecular Devices) and incubated at 37 °C for 1 h in the dark. […] All data were analyzed using GraphPad Prism 8 and the data are from at least three independent replicate experiments. All plots are shown as means ± SEM. Data were determined using one-way ANOVA followed by Dunnett’s multiple test compared with WT. The top value was normalized to 100% and the bottom value was normalized to 0% for the final presentation. […]
On the technique in general: Calcium flux is commonly read through the fluorescence of an indicator in the cells.

B1: Fab301: ETA-specific antibody Fab fragment produced from Getagozumab (antibody, V domains shown)
VH: QVTLKESGPTLVKPTQTLTLTCTFSGFSLTTSGLGVAWIRQPPGKALEWLAHIWSDGDTRYYPALKNRLTITKDTSKNQVVLTMTNMDPVDTATYYCAHMKDDSLYFDNWGQGTLVTVSS
VL: EIVLTQSPDFQSVTPKEKVTITCRASQNIGTSIHWYQQKPDQYPKLLIKYASKSISGVPSRFSGSGSGTDFTLTINSLEAEDAATYYCQHSYSFPWTFGQGTKVEIK
On to B1, for which the “Fab301's binding to ETA” value in test [1] and in test [2] was “near-complete loss” throughout. In addition, the “Effect on ET-1-induced ETA signaling” value in test [3] is given as “antagonistic effects”.
